Reference: patent US20220193237A1 (Bristol-Myers Squibb, published 2022)
Residue numbers refer to the chain shown, from its start. In names and notes the source's numbering stands. One block for each binder: values may come before it.

Assays:
monomeric human CTLA-4 [1] = biological target: T1, monomeric human CTLA-4 (human, UniProt P16410 36-161, limits assumed); experiment: SPR, captured Fab, pH 6.0 vs 7.4
T1 construct: Soluble monomeric analyte in SPR; also called huCTLA-4
T1 sequence: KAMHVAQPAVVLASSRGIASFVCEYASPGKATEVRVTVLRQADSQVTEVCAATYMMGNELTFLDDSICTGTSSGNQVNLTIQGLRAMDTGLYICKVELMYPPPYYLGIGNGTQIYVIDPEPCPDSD
Procedure: (§1) Unless otherwise indicated, experiments were performed with a BIACORE® SPR surface plasmon resonance spectrometer (Biacore AB, Uppsala, Sweden). Antibodies were tested as monovalent Fab fragments to simplify analysis.
(§2) Monomeric human CTLA-4 was flowed as analyte with up to 2 μM top concentration. Between cycles, the capture surface was regenerated with 75 mM phosphoric acid. Experiments were run on a BIACORE® T200 instrument at 37° C. Running buffers were HEPES buffered saline for pH 7.4 experiments and Bis-Tris buffered saline for lower pH experiments. […] Double referenced sensorgrams were fitted to a 1:1 Langmuir binding model with mass transport to determine equilibrium dissociation constants (KD), as well as association (kₐ) and dissociation (kd) rate constants where appropriate.

monomeric human CTLA-4 [2] = biological target: T1, monomeric human CTLA-4; experiment: SPR, captured Fab, pH 7.4
Procedure: (§3) Binding of selected variants to human CTLA-4 was determined essentially as described in Example 3. […] Nomenclature and sequences for these antibodies is provided at Tables 6 and 7, and in the sequence listing as summarized at Table 8.
as §2

monomeric human CTLA-4 [3] = biological target: T1, monomeric human CTLA-4; experiment: SPR, captured Fab, pH 6.0
Procedure: as §1, §2

monomeric human CTLA-4 [4] = biological target: T1, monomeric human CTLA-4; experiment: SPR, captured Fab, pH 6.0 vs 7.4; remark: listed apart in the source
Procedure: as §3, §2

monomeric human CTLA-4 [5] = biological target: T1, monomeric human CTLA-4; experiment: SPR, captured Fab, pH 7.4; remark: listed apart in the source
Procedure: as §1, §2

monomeric human CTLA-4 [6] = biological target: T1, monomeric human CTLA-4; experiment: SPR, captured Fab, pH 6.0; remark: listed apart in the source
Procedure: as §3, §2

monomeric cyno CTLA-4 = biological target: T2, monomeric cyno CTLA-4 (cynomolgus macaque (Macaca fascicularis), UniProt G7PL88 36-161); experiment: SPR, Fab, monomeric cyno CTLA-4 as analyte; koff (s^-1, linear axis 0 to 0.3) plotted against pH
T2 construct: also called CTLA-4 from the cynomolgus macaque Macaca fascicularis
T2 sequence: T1 sequence with S14N, I18T, L106M
Procedure: The pH dependence of binding of selected antibodies of the present invention to human CTLA-4 and cyno CTLA-4 was measured by surface plasmon resonance (SPR) spectroscopy, essentially as described in Example 3. Briefly, antibodies were studied as monovalent Fab fragments. Anti-human kappa polyclonal capture antibody (Southern Biotech, Ala. USA) was immobilized on a ethylenediamine-blocked CM4 sensor chip in a Biacore T200 surface plasmon resonance system. Fab fragments of selected antibodies of the present invention were then captured on one flow cell each. […] Running buffer was 20 mM BisTris, 150 mM NaCl, 0.05% Tween-20, 1 g/L BSA, at a pH ranging from 5.5 to 7.4 in 0.1-0.2 pH unit intervals (12 total). The surface was regenerated with 1/200 H₃PO₄ between cycles. […] Where required, the Rₘₐₓ was fixed by calculating expected binding based on capture level and apparent activity from other fits for the same Fab.

[7] = biological target: T3, human CTLA-4 on 58 α-β-CTLA-4/CD3 ζ cells (human; mouse (mCD3ζ)); experiment: flow cytometry (APC mean FI), Fab on 58αβ-CTLA4/mCD3ζ cells, pH 6.2
T3 construct: also called 58αβ-hCTLA4/mCD3ζ cells; 58αβ-CTLA4/mCD3ζ cells
Procedure: Antibodies were titrated from 100 μg/mL at a 1:4 dilution across 12 points in pH-specific buffers and incubated for 30-60 minutes. Buffers contained HBSS, 2% FBS^HI, 0.02% sodium azide, 2 mM EDTA, and sodium phosphate buffer (pH 5.4). Sodium phosphate buffer was added until desired pH was reached (7.2, 6.7, 6.2). Approximately 3e5 cells/well were tested for each cell line. […] Detection was done with a monovalent anti-hKappa secondary nanobody conjugated to Alexa647 and used at a dilution of 1:2000. Cells were fixed with BD Fix Solution I for 30 minutes prior to resuspension in pH-specific buffers and reading on the cytometer (BD Fortessa).
The experimental protocol was the same as used to obtain the data of FIGS. 16A-C.

monomeric human CTLA-4 [8] = biological target: T1, monomeric human CTLA-4; experiment: SPR, captured Fab, second experiment of Table 3
Procedure: (§4) See Example 3. Antibodies were tested as monovalent Fab fragments to simplify analysis.
as §2

monomeric human CTLA-4 [9] = biological target: T1, monomeric human CTLA-4; experiment: SPR, captured Fab, pH 6.0, second experiment
Procedure: as §4, §2

monomeric human CTLA-4 [10] = biological target: T1, monomeric human CTLA-4; experiment: SPR, captured Fab, pH 6.0 vs 7.4; remark: listed apart in the source
Procedure: as §4, §2

monomeric human CTLA-4 [11] = biological target: T1, monomeric human CTLA-4; experiment: SPR, captured Fab, pH 7.4, second experiment
Procedure: as §4, §2

monomeric human CTLA-4 [12] = biological target: T1, monomeric human CTLA-4; experiment: SPR, captured Fab, first experiment of Table 3
Procedure: as §4, §2

monomeric human CTLA-4 [13] = biological target: T1, monomeric human CTLA-4; experiment: SPR, captured Fab, pH 6.0; remark: listed apart in the source
Procedure: as §4, §2

monomeric human CTLA-4 [14] = biological target: T1, monomeric human CTLA-4; experiment: SPR, captured Fab, pH 6.0 vs 7.4, second experiment
Procedure: as §4, §2

monomeric human CTLA-4 [15] = biological target: T1, monomeric human CTLA-4; experiment: SPR, pH 6.0 and pH 7.5 (FIG. 6)
Procedure: as §1, §2

monomeric human CTLA-4 [16] = biological target: T1, monomeric human CTLA-4; experiment: SPR, captured Fab, pH 7.4; remark: listed apart in the source
Procedure: as §4, §2

B2: ipi.105 Fab (Fab, V domains shown)
VH: QVQLVESGGGVVQPGRSLRLSCAASGFTFSHYTMHWVRQAPGKGLEWVTFISYDGHNKYYADSVKGRFTISRDNSKNTLYLQMNSLRAEDTAIYYCARTGWLGPFDYWGQGTLVTVSS
VL: EIVLTQSPGTLSLSPGERATLSCRASQEVGESELAWYQQKPGQAPRLLIYGAFSRATGIPDRFSGSGSGTDFTLTISRLEPEDFAVYYCQQYGSSPWTFGQGTKVEIKR
notes: Tested as monovalent Fab
binding result (monomeric cyno CTLA-4): binds
EC50 (read off the curve) [7]: ~0.2 µg/mL
Kd (monomeric human CTLA-4 [2]): 390 nM
KD 7.4/6 (APBP) (monomeric human CTLA-4 [4]): 76
Kd (monomeric human CTLA-4 [6]): 2.5 nM
kon (monomeric human CTLA-4 [6]): 1.3e+06 M⁻¹ s⁻¹
t1/2 (monomeric human CTLA-4 [6]): 3.62 min

B4: ipi.25 Fab (Fab, V domains shown)
VH: B2 VH with H31S, H56N
VL: not shown
notes: Tested as monovalent Fab; also called LCDR1 S28E/S31D; LCDR1 S27aE/S30D (Kabat)
Kd (monomeric human CTLA-4 [2]): 25 nM
kon (monomeric human CTLA-4 [2]): 720000 M⁻¹ s⁻¹
t1/2 (monomeric human CTLA-4 [2]): 0.65 min
ratio of KD (7.4/6.0) normalized to the ratio of ipilimumab (monomeric human CTLA-4 [8]): 6.3
Kd (monomeric human CTLA-4 [9]): 7.4 nM
koff (monomeric human CTLA-4 [9]): 0.0074 s⁻¹
kon (monomeric human CTLA-4 [9]): 1e+06 M⁻¹ s⁻¹
KD 7.4/6 (APBP) (monomeric human CTLA-4 [4]): 4.1
ka 6/7.4 (monomeric human CTLA-4 [4]): 1.7
t1/2 6/7.4 (monomeric human CTLA-4 [4]): 2.4
KD 7.4/6 (APBP) (monomeric human CTLA-4 [10]): 4
ka 6/7.4 (monomeric human CTLA-4 [10]): 1.7
kd 7.4/6 (monomeric human CTLA-4 [10]): 2.3
Kd (monomeric human CTLA-4 [11]): 37 nM
koff (monomeric human CTLA-4 [11]): 0.017 s⁻¹
kon (monomeric human CTLA-4 [11]): 460000 M⁻¹ s⁻¹
ratio of KD (7.4/6.0) normalized to the ratio of ipilimumab (monomeric human CTLA-4 [12]): 4
Kd (monomeric human CTLA-4 [13]): 6.2 nM
koff (monomeric human CTLA-4 [13]): 0.0077 s⁻¹
kon (monomeric human CTLA-4 [13]): 1.2e+06 M⁻¹ s⁻¹
KD 7.4/6 (APBP) (monomeric human CTLA-4 [14]): 5
ka 6/7.4 (monomeric human CTLA-4 [14]): 2.2
kd 7.4/6 (monomeric human CTLA-4 [14]): 2.3
Kd (monomeric human CTLA-4 [6]): 6.2 nM
kon (monomeric human CTLA-4 [6]): 1.2e+06 M⁻¹ s⁻¹
t1/2 (monomeric human CTLA-4 [6]): 1.5 min
CAPBP (ratio of KD normalized to ipilimumab) (monomeric human CTLA-4 [15]): 6.3
Kd (monomeric human CTLA-4 [16]): 25 nM
koff (monomeric human CTLA-4 [16]): 0.018 s⁻¹
kon (monomeric human CTLA-4 [16]): 720000 M⁻¹ s⁻¹

Binders with a lower Kd (monomeric human CTLA-4 [2]), results first:

KD 7.4/6 (APBP) (monomeric human CTLA-4 [1]): 1.2
Kd (monomeric human CTLA-4 [2]): 8.6 nM
kon (monomeric human CTLA-4 [2]): 840000 M⁻¹ s⁻¹
t1/2 (monomeric human CTLA-4 [2]): 1.6 min
Kd (monomeric human CTLA-4 [3]): 20 nM
koff (monomeric human CTLA-4 [3]): 0.011 s⁻¹
kon (monomeric human CTLA-4 [3]): 560000 M⁻¹ s⁻¹
KD 7.4/6 (APBP) (monomeric human CTLA-4 [4]): 1.1
ka 6/7.4 (monomeric human CTLA-4 [4]): 1.1
t1/2 6/7.4 (monomeric human CTLA-4 [4]): 1
Kd (monomeric human CTLA-4 [5]): 17 nM
koff (monomeric human CTLA-4 [5]): 0.011 s⁻¹
kon (monomeric human CTLA-4 [5]): 650000 M⁻¹ s⁻¹
Kd (monomeric human CTLA-4 [6]): 7.7 nM
kon (monomeric human CTLA-4 [6]): 960000 M⁻¹ s⁻¹
t1/2 (monomeric human CTLA-4 [6]): 1.57 min
B1: ipi.1 Fab (Fab, V domains shown)
VH: B2 VH with H31S, T33H, H56N
VL: not shown
notes: Tested as monovalent Fab; also called T33H (Kabat)

KD 7.4/6 (APBP) (monomeric human CTLA-4 [1]): 0.8
Kd (monomeric human CTLA-4 [2]): 5.8 nM
kon (monomeric human CTLA-4 [2]): 880000 M⁻¹ s⁻¹
t1/2 (monomeric human CTLA-4 [2]): 2.27 min
Kd (monomeric human CTLA-4 [3]): 13 nM
koff (monomeric human CTLA-4 [3]): 0.0065 s⁻¹
kon (monomeric human CTLA-4 [3]): 490000 M⁻¹ s⁻¹
KD 7.4/6 (APBP) (monomeric human CTLA-4 [4]): 0.9
ka 6/7.4 (monomeric human CTLA-4 [4]): 1.4
t1/2 6/7.4 (monomeric human CTLA-4 [4]): 0.6
Kd (monomeric human CTLA-4 [5]): 16 nM
koff (monomeric human CTLA-4 [5]): 0.011 s⁻¹
kon (monomeric human CTLA-4 [5]): 670000 M⁻¹ s⁻¹
Kd (monomeric human CTLA-4 [6]): 6.8 nM
kon (monomeric human CTLA-4 [6]): 1.2e+06 M⁻¹ s⁻¹
t1/2 (monomeric human CTLA-4 [6]): 1.38 min
B3: ipi.2 Fab (Fab, V domains shown)
VH: B2 VH with H31S, H56N, N57H
VL: not shown
notes: Tested as monovalent Fab; also called N56H (Kabat)
